This is an account of results in paper PMC5173319, “Crenactin forms actin-like double helical filaments regulated by arcadin-2” (eLife, 2016).

Assay [1] concerns the target Pyrobaculum calidifontis crenactin (Pyrobaculum calidifontis) (UniProt A3MWN5). Nature of the assay: SPR; crenactin immobilised by amide coupling on CM5 chip (~2300 RU), Biacore T200, PBS-0.005% Tween 20, 20°C; arcadin-1 in 1:3 dilution series from 36.7 µM; equilibrium response fitted to a single site model.
For assay [2], the target named is Pyrobaculum calidifontis arcadin-1 (Pyrobaculum calidifontis). As to the kind of experiment: AUC; sedimentation equilibrium, arcadin-1 at 49.8, 99.5 and 199 µM, 7800, 11800 and 15,000 rpm, 20°C, 25 mM Tris-HCl pH 8.0, 100 mM NaCl, 1 mM EDTA; idealised single-species model.

Chain of Pyrobaculum calidifontis crenactin (Pyrobaculum calidifontis) (A3MWN5 whole entry): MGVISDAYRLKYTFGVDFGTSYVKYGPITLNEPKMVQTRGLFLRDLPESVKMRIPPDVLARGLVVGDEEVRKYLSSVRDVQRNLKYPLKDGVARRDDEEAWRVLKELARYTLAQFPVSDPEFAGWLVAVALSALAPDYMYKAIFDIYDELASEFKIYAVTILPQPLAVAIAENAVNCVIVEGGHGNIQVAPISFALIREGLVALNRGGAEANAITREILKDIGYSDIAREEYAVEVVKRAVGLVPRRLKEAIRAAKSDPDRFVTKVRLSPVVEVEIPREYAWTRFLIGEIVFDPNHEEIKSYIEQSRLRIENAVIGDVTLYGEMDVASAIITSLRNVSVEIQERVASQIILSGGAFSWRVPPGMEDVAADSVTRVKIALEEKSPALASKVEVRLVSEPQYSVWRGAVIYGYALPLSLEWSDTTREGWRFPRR

For the substance “Pyrobaculum calidifontis arcadin-1 (natural protein)”, the Kd (usually the constant that tells how readily two partners part at equilibrium) in assay [1] amounted to 15 µM. Also, the stoichiometry N (usually the number of molecules, sites or subunits per partner or assembly) in assay [2] was determined as 8.
